In patent US10731187B2, “Recombinant strain producing O-aminobenzoate and fermentative production of aniline from renewable resources via 2-aminobenzoic acid” (Covestro Deutschland AG, priority 2014, dated 2020):

Key:
Conditions in all cases: other: raw extract (cell lysate), 25 °C, 20 mM L-glutamine, 10 mM MgCl2, chorismate as substrate
[1] = substrate: C=C(O[C@@H]1C=C(C(=O)O)C=C[C@H]1O)C(=O)O; test: cells, lysate or membranes
[2] = substrate: C=C(O[C@@H]1C=C(C(=O)O)C=C[C@H]1O)C(=O)O; test: Anthranilate synthase activity in cell lysate of C. glutamicum ΔtrpD/pEKEx2-trpEG^S38F (KM and vmax); assay type: biochemical, Corynebacterium glutamicum ATCC 13032
From the text: (§1) In more specific embodiments of the recombinant microbial host cell of invention, the Corynebacterium glutamicum microbial host cell, preferably Corynebacterium glutamicum ATCC 13032, can further overexpress one or more of the genes selected from the group consisting of galP (SEQ ID NO: 30), iolT2 (SEQ ID NO: 31), ppgk (SEQ ID NO: 32), pps (SEQ ID NO: 33-35), ppk (SEQ ID NO: 36), zwfl (SEQ ID NO: 37), opcA (SEQ ID NO: 38-39), tktCg (SEQ ID NO: 40), tktEc (SEQ ID NO: 41), talCg (SEQ ID NO: 42), tame (SEQ ID NO: 43), a gene encoding TrpEGS38F (trpEG^S38F, SEQ ID NO: 50), a gene encoding TrpEGS38R (trpEG^S38R, SEQ ID NO: 51), a gene encoding TrpEGS40R (trpEG^S40R, SEQ ID NO: 52), a gene encoding TrpEGS40F (trpEG^S40F, SEQ ID NO: 53), the gene encoding AroGD146N (aroG^D146N, SEQ ID NO: 55), aroL of Escherichia coli LJ110 (SEQ ID NO: 93), aroK (SEQ ID NO: 94), glnA (SEQ ID NO: 95), and qsuA (SEQ ID NO: 96). […]

[3] = substrate: C=C(O[C@@H]1C=C(C(=O)O)C=C[C@H]1O)C(=O)O; test: Anthranilate synthase activity in cell lysate of C. glutamicum ΔtrpD/pEKEx2-trpEG^S38R (KM and vmax); assay type: biochemical, Corynebacterium glutamicum ATCC 13032
From the text: as §1

[4] = substrate: C=C(O[C@@H]1C=C(C(=O)O)C=C[C@H]1O)C(=O)O; test: Anthranilate synthase activity in cell lysate of C. glutamicum ΔtrpD/pEKEx2-trpEG^S40F (KM and vmax); assay type: biochemical, E. coli
From the text: as §1

B1: Corynebacterium glutamicum ATCC 13032 TrpEG (anthranilate synthase), natural (wild type, Cgl3029/31) (Corynebacterium glutamicum ATCC 13032) (protein)
chain: MSTNPHVFSLDVRYHEDASALFAHLGGTTADDAALLESADITTKNGISSLAVLKSSVRITCTGNTVVTQPLTDSGRAVVARLTQQLGQYNTAENTFSFPASDAVDERERLTAPSTIEVLRKLQFESGYSDASLPLLMGGFAFDFLETFETLPAVEESVNTYPDYQFVLAEIVLDINHQDQTAKLAGVSNAPGELEAELNKLSLLIDAALPATEHAYQTTPHDGDTLRVVADIPDAQFRTQINELKENIYNGDIYQVVPARTFTAPCPDAFAAYLQLRATNPSPYMFYIRGLNEGRSYELFGASPESNLKFTAANRELQLYPIAGTRPRGLNPDGSINDELDIRNELDMRTDAKEIAEHTMLVDLARNDLARVSVPASRRVADLLQVDRYSRVMHLVSRVTATLDPELDALDAYRACMNMGTLTGAPKLRAMELLRGVEKRRRGSYGGAVGYLRGNGDMDNCIVIRSAFVQDGVAAVQAGAGVVRDSNPQSEADETLHKAYAVLNAIALAAGSTLEVIR
[1]
  Km: 11.4 µmol
  Vmax: 0.0127 µmol/min/mg

B2: Corynebacterium glutamicum TrpEG (anthranilate synthase) variant TrpEGS38F, mutation S38F (SEQ ID NO: 50 in b85; SEQ ID No. 52-53 in b196) (Corynebacterium … (protein)
chain: MSTNPHVFSLDVRYHEDASALFAHLGGTTADDAALLEFADITTKNGISSLAVLKSSVRITCTGNTVVTQPLTDSGRAVVARLTQQLGQYNTAENTFSFPASDAVDERERLTAPSTIEVLRKLQFESGYSDASLPLLMGGFAFDFLETFETLPAVEESVNTYPDYQFVLAEIVLDINHQDQTAKLAGVSNAPGELEAELNKLSLLIDAALPATEHAYQTTPHDGDTLRVVADIPDAQFRTQINELKENIYNGDIYQVVPARTFTAPCPDAFAAYLQLRATNPSPYMFYIRGLNEGRSYELFGASPESNLKFTAANRELQLYPIAGTRPRGLNPDGSINDELDIRNELDMRTDAKEIAEHTMLVDLARNDLARVSVPASRRVADLLQVDRYSRVMHLVSRVTATLDPELDALDAYRACMNMGTLTGAPKLRAMELLRGVEKRRRGSYGGAVGYLRGNGDMDNCIVIRSAFVQDGVAAVQAGAGVVRDSNPQSEADETLHKAYAVLNAIALAAGSTLEVIR
[2]
  Km: 16.2 µmol
  Vmax: 0.0688 µmol/min/mg

B3: Corynebacterium glutamicum TrpEG (anthranilate synthase) variant TrpEGS38R, mutation S38R (SEQ ID NO: 51 in b85; SEQ ID No. 52-53 in b196) (Corynebacterium … (protein)
chain: MSTNPHVFSLDVRYHEDASALFAHLGGTTADDAALLERADITTKNGISSLAVLKSSVRITCTGNTVVTQPLTDSGRAVVARLTQQLGQYNTAENTFSFPASDAVDERERLTAPSTIEVLRKLQFESGYSDASLPLLMGGFAFDFLETFETLPAVEESVNTYPDYQFVLAEIVLDINHQDQTAKLAGVSNAPGELEAELNKLSLLIDAALPATEHAYQTTPHDGDTLRVVADIPDAQFRTQINELKENIYNGDIYQVVPARTFTAPCPDAFAAYLQLRATNPSPYMFYIRGLNEGRSYELFGASPESNLKFTAANRELQLYPIAGTRPRGLNPDGSINDELDIRNELDMRTDAKEIAEHTMLVDLARNDLARVSVPASRRVADLLQVDRYSRVMHLVSRVTATLDPELDALDAYRACMNMGTLTGAPKLRAMELLRGVEKRRRGSYGGAVGYLRGNGDMDNCIVIRSAFVQDGVAAVQAGAGVVRDSNPQSEADETLHKAYAVLNAIALAAGSTLEVIR
[3]
  Km: 21.6 µmol
  Vmax: 0.231 µmol/min/mg

B4: E. coli TrpEG (anthranilate synthase) variant TrpEGS40F, mutation S40F (SEQ ID NO: 53 in b85; SEQ ID No. 50-51 in b196) (Escherichia coli K-12; S40F) (protein)
chain: MQTQKPTLELLTCEGAYRDNPTALFHQLCGDRPATLLLEFADIDSKDDLKSLLLVDSALRITALGDTVTIQALSGNGEALLALLDNALPAGVESEQSPNCRVLRFPPVSPLLDEDARLCSLSVFDAFRLLQNLLNVPKEEREAMFFGGLFSYDLVAGFEDLPQLSAENNCPDFCFYLAETLMVIDHQKKSTRIQASLFAPNEEEKQRLTARLNELRQQLTEAAPPLPVVSVPHMRCECNQSDEEFGGVVRLLQKAIRAGEIFQVVPSRRFSLPCPSPLAAYYVLKKSNPSPYMFFMQDNDFTLFGASPESSLKYDATSRQIEIYPIAGTRPRGRRADGSLDRDLDSRIELEMRTDHKELSEHLMLVDLARNDLARICTPGSRYVADLTKVDRYSYVMHLVSRVVGELRHDLDALHAYRACMNMGTLSGAPKVRAMQLIAEAEGRRRGSYGGAVGYFTAHGDLDTCIVIRSALVENGIATVQAGAGVVLDSVPQSEADETRNKARAVLRAIATAHHAQETF
[4]
  Vmax: 0.427 µmol/min/mg
